Measurements published in patent EP0797662B1.

Molecular target: extracellular domain of the aFGF receptor (sFGFR)
Experiment: ITC, aFGF and the extracellular domain of its receptor

Sequence of aFGF (P05230 16-155): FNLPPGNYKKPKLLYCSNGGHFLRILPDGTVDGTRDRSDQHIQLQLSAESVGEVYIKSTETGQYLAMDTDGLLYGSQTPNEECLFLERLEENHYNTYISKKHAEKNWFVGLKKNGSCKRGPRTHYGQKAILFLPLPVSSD

Kd: 500 nM
Substance: aFGF
